Laboratory results from US20210230570.

Assays:
[1] = molecular target: plasma purified human AT-III (antithrombin III), in complex with full-length unfractionated heparin (AT-III/UFH)

B1: FIXa-R318Y/R338E/E410N/T412V (protein)
chain 1: YNSGKLEEFVQGNLERECMEEKCSFEEAREVFENTERTTEFWKQYVDGDQCESNPCLNGGSCKDDINSYECWCPFGFEGKNCELDVTCNIKNGRCEQFCKNSADNKVVCSCTEGYRLAENQKSCEPAVPFPCGRVSVSQTSKLTR
chain 2: VVGGEDAKPGQFPWQVVLNGKVDAFCGGSIVNEKWIVTAAHCVETGVKITVVAGEHNIEETEHTEQKRNVIRIIPHHNYNAAINKYNHDIALLELDEPLVLNSYVTPICIADKEYTNIFLKFGSGYVSGWGRVFHKGYSALVLQYLRVPLVDRATCLESTKFTIYNNMFCAGFHEGGRDSCQGDSGGPHVTEVEGTSFLTGIISWGEECAMKGKYGIYTKVSRYVNWIKNKVKLT
Factor X (FX), P00742
Chain of Factor X (FX), P00742 (P00742 whole entry, looked up): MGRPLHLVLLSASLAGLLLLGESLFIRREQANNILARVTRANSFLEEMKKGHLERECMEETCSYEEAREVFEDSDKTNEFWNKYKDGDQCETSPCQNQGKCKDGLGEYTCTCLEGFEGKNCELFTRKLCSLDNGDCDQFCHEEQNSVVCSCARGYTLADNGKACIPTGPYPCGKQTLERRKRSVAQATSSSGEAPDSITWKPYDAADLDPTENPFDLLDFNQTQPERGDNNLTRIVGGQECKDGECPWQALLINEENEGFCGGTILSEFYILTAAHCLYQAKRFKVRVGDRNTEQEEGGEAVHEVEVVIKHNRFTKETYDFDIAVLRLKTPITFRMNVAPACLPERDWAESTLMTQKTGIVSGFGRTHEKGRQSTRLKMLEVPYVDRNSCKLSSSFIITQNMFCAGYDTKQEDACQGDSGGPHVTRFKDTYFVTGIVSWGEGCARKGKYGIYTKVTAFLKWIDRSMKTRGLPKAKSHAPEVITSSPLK
  KM: 0.0236 µM
  KM (nM); Catalytic activity of FIXa variants (KM): 29.7 nM
  kcat of FX activation by FIXa in the Xase complex (FVIIIa, PC/PS vesicles, Ca2+): 5.2 s⁻¹
  kcat/KM: 2.4e+08 M⁻¹ s⁻¹
[1]
  K0.5-mut/K0.5-wt (against Catalyst Biosciences WT FIXa): > 517

B2: FIXa-Y155F/N260S/R318Y/R338E/R403E/E410N (protein)
chain 1: YNSGKLEEFVQGNLERECMEEKCSFEEAREVFENTERTTEFWKQYVDGDQCESNPCLNGGSCKDDINSYECWCPFGFEGKNCELDVTCNIKNGRCEQFCKNSADNKVVCSCTEGYRLAENQKSCEPAVPFPCGRVSVSQTSKLTR
chain 2: VVGGEDAKPGQFPWQVVLNGKVDAFCGGSIVNEKWIVTAAHCVETGVKITVVAGEHNIEETEHTEQKRNVIRIIPHHNYSAAINKYNHDIALLELDEPLVLNSYVTPICIADKEYTNIFLKFGSGYVSGWGRVFHKGYSALVLQYLRVPLVDRATCLESTKFTIYNNMFCAGFHEGGRDSCQGDSGGPHVTEVEGTSFLTGIISWGEECAMKGKYGIYTKVSEYVNWIKNKTKLT
Factor X (FX), P00742
  KM (nM); Catalytic activity of FIXa variants (KM): 83.9 nM
  kcat of FX activation by FIXa in the Xase complex (FVIIIa, PC/PS vesicles, Ca2+): 5.8 s⁻¹
[1]
  K0.5-mut/K0.5-wt (against Catalyst Biosciences WT FIXa): 501

B3: FIXa-D104N/K106S/N260S/R318Y/R338E/R403E/E410N (protein)
chain 1: YNSGKLEEFVQGNLERECMEEKCSFEEAREVFENTERTTEFWKQYVDGDQCESNPCLNGGSCKDDINSYECWCPFGFEGKNCELDVTCNIKNGRCEQFCKNSANNSVVCSCTEGYRLAENQKSCEPAVPFPCGRVSVSQTSKLTR
chain 2: VVGGEDAKPGQFPWQVVLNGKVDAFCGGSIVNEKWIVTAAHCVETGVKITVVAGEHNIEETEHTEQKRNVIRIIPHHNYSAAINKYNHDIALLELDEPLVLNSYVTPICIADKEYTNIFLKFGSGYVSGWGRVFHKGYSALVLQYLRVPLVDRATCLESTKFTIYNNMFCAGFHEGGRDSCQGDSGGPHVTEVEGTSFLTGIISWGEECAMKGKYGIYTKVSEYVNWIKNKTKLT
Factor X (FX), P00742
  KM (nM); Catalytic activity of FIXa variants (KM): 61.1 nM
  kcat of FX activation by FIXa in the Xase complex (FVIIIa, PC/PS vesicles, Ca2+): 5.4 s⁻¹
[1]
  K0.5-mut/K0.5-wt (against Catalyst Biosciences WT FIXa): > 517

B4: FIXa-R318Y/R338E/N346D/R403E/E410N (protein)
chain 1: YNSGKLEEFVQGNLERECMEEKCSFEEAREVFENTERTTEFWKQYVDGDQCESNPCLNGGSCKDDINSYECWCPFGFEGKNCELDVTCNIKNGRCEQFCKNSADNKVVCSCTEGYRLAENQKSCEPAVPFPCGRVSVSQTSKLTR
chain 2: VVGGEDAKPGQFPWQVVLNGKVDAFCGGSIVNEKWIVTAAHCVETGVKITVVAGEHNIEETEHTEQKRNVIRIIPHHNYNAAINKYNHDIALLELDEPLVLNSYVTPICIADKEYTNIFLKFGSGYVSGWGRVFHKGYSALVLQYLRVPLVDRATCLESTKFTIYDNMFCAGFHEGGRDSCQGDSGGPHVTEVEGTSFLTGIISWGEECAMKGKYGIYTKVSEYVNWIKNKTKLT
Factor X (FX), P00742
  KM (nM); Catalytic activity of FIXa variants (KM): 77.7 nM
  kcat of FX activation by FIXa in the Xase complex (FVIIIa, PC/PS vesicles, Ca2+): 2.5 s⁻¹
[1]
  K0.5-mut/K0.5-wt (against Catalyst Biosciences WT FIXa): > 517

B5: FIXa-N260S/R318Y/R338E/R403E/E410N (protein)
chain 1: YNSGKLEEFVQGNLERECMEEKCSFEEAREVFENTERTTEFWKQYVDGDQCESNPCLNGGSCKDDINSYECWCPFGFEGKNCELDVTCNIKNGRCEQFCKNSADNKVVCSCTEGYRLAENQKSCEPAVPFPCGRVSVSQTSKLTR
chain 2: VVGGEDAKPGQFPWQVVLNGKVDAFCGGSIVNEKWIVTAAHCVETGVKITVVAGEHNIEETEHTEQKRNVIRIIPHHNYSAAINKYNHDIALLELDEPLVLNSYVTPICIADKEYTNIFLKFGSGYVSGWGRVFHKGYSALVLQYLRVPLVDRATCLESTKFTIYNNMFCAGFHEGGRDSCQGDSGGPHVTEVEGTSFLTGIISWGEECAMKGKYGIYTKVSEYVNWIKNKTKLT
Factor X (FX), P00742
  KM (nM); Catalytic activity of FIXa variants (KM): 72.4 nM
  kcat of FX activation by FIXa in the Xase complex (FVIIIa, PC/PS vesicles, Ca2+): 3.8 s⁻¹
[1]
  K0.5-mut/K0.5-wt (against Catalyst Biosciences WT FIXa): > 517
